Measured values taken from patent US20200255508A1 (AbbVie / Abbott, published 2020).
Residue numbers refer to the chain shown, from its start.

B1: E9-SE2 (antibody, V domains shown)
VH: EVQLVESGGGLVQPGGSLRLSCAVSGGSISSSSYYWGWIRQAPGKGLEWIGDIYYTGSTYYNPSLKSRVTISVDTSKNSFYLQMNSLRAEDTAVYYCAREDVILRGGSDYWGQGTLVTVSS
VL: SYELTQPPSVSVSPGQTASITCSGQRLGDKYASWYQQKPGQSPVLVIYEDSKRPSGIPERFSGSNSGDTATLTISGTQPMDEADYYCQAWDRDTGVFGYGTRVTVLG
notes: full-length human IgG1
B2: E9-SE7 (antibody, V domains shown)
VH: B1 VH
VL: EYVLTQSPDFQSVTPKEKVTITCSGQRLGDKYASWYQQKPDQSPKLVIYEDSKRPSGVPSRFSGSNSGDDATLTINSLEAEDAATYYCQAWDRDTGVFGQGTKVEIKR
notes: full-length human IgG1
B3: E9-SE3 (antibody, V domains shown)
VH: EVQLQESGPGLVKPGETLSLTCTVSGGSISSSSYYWGWIRQAPGKGLEWIGDIYYTGSTYYNPSLKSRVTISVDTSKNQFYLKLSSVRAEDTAVYYCAREDVILRGGSDYWGQGTLVTVSS
VL: B1 VL
notes: full-length human IgG1
B4: E9-SE6 (antibody, V domains shown)
VH: B3 VH
VL: B1 VL with S1L, E3V, P79T, Y86L, Y99G, R102K
notes: full-length human IgG1
B5: E9-SE4 (antibody, V domains shown)
VH: B3 VH with G15S, A42P, Y81S, R88T, E90A
VL: B1 VL with S1L, E3V, P79T, Y86L, Y99G, R102K
notes: full-length human IgG1
B6: E9-SE5 (antibody, V domains shown)
VH: B3 VH with G15S, A42P, Y81S, R88T, E90A
VL: B2 VL
notes: full-length human IgG1
B7: E9-SE8 (antibody, V domains shown)
VH: B3 VH
VL: B2 VL
notes: full-length human IgG1
B8: E9-FR1 (antibody, V domains shown)
VH: EVQLVQSGTEVKKPGESLKISCKVSGGSISSSSYYWGWIRQMPGKGLEWIGDIYYTGSTYYNPSLKSQVTISVDTSFNTFFLQWSSLKASDTAMYYCAREDVILRGGSDYWGQGTMVTVSS
VL: EYVLTQSPATLSVSPGERATLSCSGQRLGDKYASWYQQKPGQSPRLVIYEDSKRPSDIPARFSGSNSGDEATLTISSLQSEDFAVYYCQAWDRDTGVFGQGTRLEIKR
notes: full-length human IgG1
B9: E9-FR2 (antibody, V domains shown)
VH: EVTLRESGPALVKPTQTLTLTCTVSGGSISSSSYYWGWIRQPPGKGLEWIGDIYYTGSTYYNPSLKSRVTISVDTSKNQFVLTMTNMDPVDTATYYCAREDVILRGGSDYWGQGTTVTVSS
VL: DYVLTQSPDSLAVSLGERATINCSGQRLGDKYASWYQQKPGQSPKLVIYEDSKRPSGIPDRFSGSNSGDDATLTISSLQAEDVAVYYCQAWDRDTGVFGGGTKVEIKR
notes: full-length human IgG1
B10: E9.7E (antibody, V domains shown)
VH: EVQLQESGPGLVKPSETLSLTCTVSGGSISSSSYYWGWIRQPPGKGLEWIGDIYYAGSTYYNPSLKDRVTISVDTSKNQFSLKLSSVTAADTAVYYCAREDMILGGGADNWGQGTLVTVSS
VL: SYELTQPPSVSVSPGQTASITCSGDRLGDKYVSWYQQKPGQSPVLVIYEDSERPSGIPERFSGSNSGDTATLTISGTQAMDEADYYCQAWDSEAGVFGSGTKVT
B11: E9.10C (antibody, V domains shown)
VH: B10 VH with S32G, A56T, D67S, E100Q, D101A, M102V, I103M, L104Y, A108S
VL: B10 VL with R26S, A94T
B12: E9.71(L) (antibody, human IgG1, V domains shown)
VH: B10 VH with A56T, D67S, E100Q, D101A, M102L, I103A, A108S, N110K
VL: B1 VL with Y99G, R102K, V103L
notes: Methionine in CDR-H3 of E9-71 changed to leucine

These binders were tested against T1, human DLL4 extracellular domain (human, UniProt Q9NR61 27-529) (assay: Biacore SPR;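 as to koff: surface plasmon resonance on a Biacore instrument, antibodies captured on immobilized anti-human Fc, purified recombinant DLL4 extracellular domain injected as analyte, binding followed over time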).
T1 construct: extracellular domain; coated on plates in the sVEGFR1 assay; also called huDLL4 ECD; Human DLL4 ECD
Procedure: (§1) The BIACORE® surface plasmon resonance assay (Biacore, Inc., Piscataway, N.J., US) determines the affinity of antibodies with kinetic measurements of on-rate and off-rate constants. Binding of DLL4 antibodies to a purified recombinant DLL4 extracellular domain is determined by surface plasmon resonance-based measurements with a Biacore® instrument (either a Biacore 2000, Biacore 3000, or Biacore T100, GE Healthcare, Piscataway, N.J. US) using running buffer HBS-EPB (10 mM HEPES [pH 7.4], 150 mM NaCl, 3 mM EDTA, 0.1 mg/ml BSA and 0.005% surfactant P20) at 25° C. For example, approximately 9000 RU of goat anti-human Fc specific polyclonal antibody (Thermo Fisher Scientific Inc., Rockford, Ill., US) diluted in 10 mM sodium acetate (pH 4.5) is directly immobilized across a CM5 research grade biosensor chip using a standard amine coupling kit according to manufacturer's instructions and procedures at 25 μg/ml. Unreacted moieties on the biosensor surface are blocked with ethanolamine. For kinetic analysis, rate equations derived from the 1:1 Langmuir binding model are fitted simultaneously to multiple antigen injections (using global fit analysis) with the use of Scrubber 2 (BioLogic Software). […] The equilibrium dissociation constant KD (M) of the reaction between antibodies and the target antigen is then calculated from the kinetic rate constants by the following formula: KD=Koff/Kₒₙ. Binding is recorded as a function of time and kinetic rate constants are calculated. In this assay, on-rates as fast as 10⁶ M⁻¹s⁻¹ and off-rates as slow as 10⁻⁶ s⁻¹ can be measured.

Row | Kd [nM] | Binder
1 | 2.43 | B1
2 | 1.69 | B2
3 | 2.26 | B3
4 | 0.64 | B4
5 | 2.38 | B5
6 | 1.57 | B6
7 | 2 | B7

These binders were tested against T2, mouse DLL4 extracellular domain (mouse, UniProt Q9JI71 27-532) (assay: Biacore SPR;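 as to koff: surface plasmon resonance on a Biacore instrument, antibodies captured on immobilized anti-human Fc, purified recombinant DLL4 extracellular domain injected as analyte, binding followed over time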).
T2 construct: extracellular domain; also called muDLL4 ECD; Mouse DLL4 ECD
T2 sequence (Q9JI71 27-532): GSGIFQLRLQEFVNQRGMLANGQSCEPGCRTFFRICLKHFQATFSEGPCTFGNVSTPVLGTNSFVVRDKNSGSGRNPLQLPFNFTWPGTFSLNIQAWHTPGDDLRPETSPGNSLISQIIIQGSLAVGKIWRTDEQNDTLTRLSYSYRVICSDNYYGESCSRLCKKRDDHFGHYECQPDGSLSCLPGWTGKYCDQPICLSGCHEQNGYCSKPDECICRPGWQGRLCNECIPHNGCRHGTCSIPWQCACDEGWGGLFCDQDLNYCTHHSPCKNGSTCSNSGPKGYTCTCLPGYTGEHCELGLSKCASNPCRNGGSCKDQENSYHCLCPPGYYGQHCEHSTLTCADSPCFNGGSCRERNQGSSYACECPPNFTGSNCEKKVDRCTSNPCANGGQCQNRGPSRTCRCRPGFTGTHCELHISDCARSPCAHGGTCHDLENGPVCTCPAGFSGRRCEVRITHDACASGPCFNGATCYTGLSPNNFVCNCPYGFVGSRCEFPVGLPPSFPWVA
Procedure: as §1

Row | Kd [nM] | Binder
8 | 15.1 | B1
9 | 16.2 | B2
10 | 12.1 | B3
11 | 10 | B4
12 | 10.5 | B5
13 | 12.8 | B6
14 | 13 | B7

Molecular target: T1, human DLL4 extracellular domain
Experiment: Biacore SPR;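 as to koff: surface plasmon resonance on a Biacore instrument, antibodies captured on immobilized anti-human Fc, purified recombinant DLL4 extracellular domain injected as analyte, binding followed over time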
Remark: another data set of the same source
Procedure: as §1

Row | Kd [nM] | Binder
15 | 0.72 | B8
16 | 0.31 | B9

Molecular target: T2, mouse DLL4 extracellular domain
Experiment: Biacore SPR;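 as to koff: surface plasmon resonance on a Biacore instrument, antibodies captured on immobilized anti-human Fc, purified recombinant DLL4 extracellular domain injected as analyte, binding followed over time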
Remark: another data set of the same source
Procedure: as §1

Row | Kd [nM] | Binder
17 | 1.6 | B8
18 | 0.69 | B9

Molecular target: T1, human DLL4 extracellular domain
Experiment: Biacore SPR
Remark: another data set of the same source

Row | Kd [nM] | koff [s⁻¹] | kon [M⁻¹ s⁻¹] | Binder
19 | 0.27 | 4.12e-05 | 152000 | B10
20 | 0.38 | 4.59e-05 | 120000 | B11

Molecular target: T2, mouse DLL4 extracellular domain
Experiment: Biacore SPR
Remark: another data set of the same source

Row | Kd [nM] | koff [s⁻¹] | kon [M⁻¹ s⁻¹] | Binder
21 | 2.3 | 0.000221 | 95300 | B10
22 | 1.6 | 0.000121 | 73700 | B11

What follows are binders tested against T3, human DLL4-his (human, UniProt Q9NR61 27-529) (assay: ELISA on DLL4-his).
T3 construct: extracellular domain
Procedure: (§2) After the final wash, plates were incubated with 100 μl/well ELISA substrate (Sigma # T8665). The reaction was stopped after 8 minutes at 25° C. with 100 μl/well 1N HCl and the absorbance was read at 450 nm. Data were analyzed using Graphpad Prism software and EC50 values were reported.

Row | EC50 [nM] | Binder
23 | 0.18 | B1
24 | 0.17 | B2
25 | 0.18 | B3
26 | 0.17 | B4
27 | 0.17 | B5
28 | 0.16 | B6
29 | 0.18 | B7

The binders below were run against T4, mouse DLL4-his (mouse, UniProt Q9JI71 27-532) (assay: ELISA on DLL4-his).
T4 construct: extracellular domain; not shown: his tag
T4 sequence (Q9JI71 27-532): as above

Row | EC50 [nM] | Binder
30 | 0.2 | B1
31 | 0.17 | B2
32 | 0.2 | B3
33 | 0.19 | B4
34 | 0.2 | B5
35 | 0.19 | B6
36 | 0.19 | B7

Molecular target: T3, human DLL4-his
Experiment: ELISA on DLL4-his
Remark: another data set of the same source
Procedure: as §2

Row | EC50 [nM] | Binder
37 | 0.11 | B8
38 | 0.105 | B9

Molecular target: T4, mouse DLL4-his
Experiment: ELISA on DLL4-his
Remark: another data set of the same source
Procedure: as §2

Row | EC50 [nM] | Binder
39 | 0.13 | B8
40 | 0.125 | B9

The binders below were run against T5, human DLL4 on the cell surface (human, UniProt Q9NR61 27-685) (assay: FACS on DLL4 cells).
T5 construct: whole, on cells; also called HEK293-hDLL4; hDLL4-293G
Procedure: (§3) Stable cell lines overexpressing cell-surface DLL4 were harvested from tissue culture flasks, washed four times and resuspended in phosphate buffered saline (PBS) containing 1% bovine serum albumin and 1 mM CaCl₂ (FACS buffer), 1.5×10³ cells were incubated with antibodies at various concentrations in FACS buffer for 60 minutes on ice. Cells were washed twice and 50 μL of R-phycoerythrin-conjugated anti-rat IgG. […] Following an incubation on ice (4° C., 60 minutes), cells were washed three times and resuspended in FACS buffer. Fluorescence was measured using a Becton Dickinson FACSCalibur-HTS (Becton Dickinson, San Jose. Calif., US). Data were analyzed using Graphpad Prism software and EC₅₀ values were reported as the concentration of antibody to achieve 50% of maximal DLL4 antibodies binding to DLL4 expressing cells.

Row | Kd [nM] | Binder
41 | 5.2 | B1
42 | 2.28 | B2
43 | 2.29 | B3
44 | 4.25 | B4
45 | 7.81 | B6
46 | 2.67 | B7

The binders below were run against T6, mouse DLL4 on the cell surface (mouse, UniProt Q9JI71 27-686) (assay: FACS on DLL4 cells).
T6 construct: whole, on cells; also called HEK293-mDLL4; mDLL4-293G
T6 sequence (Q9JI71 27-686): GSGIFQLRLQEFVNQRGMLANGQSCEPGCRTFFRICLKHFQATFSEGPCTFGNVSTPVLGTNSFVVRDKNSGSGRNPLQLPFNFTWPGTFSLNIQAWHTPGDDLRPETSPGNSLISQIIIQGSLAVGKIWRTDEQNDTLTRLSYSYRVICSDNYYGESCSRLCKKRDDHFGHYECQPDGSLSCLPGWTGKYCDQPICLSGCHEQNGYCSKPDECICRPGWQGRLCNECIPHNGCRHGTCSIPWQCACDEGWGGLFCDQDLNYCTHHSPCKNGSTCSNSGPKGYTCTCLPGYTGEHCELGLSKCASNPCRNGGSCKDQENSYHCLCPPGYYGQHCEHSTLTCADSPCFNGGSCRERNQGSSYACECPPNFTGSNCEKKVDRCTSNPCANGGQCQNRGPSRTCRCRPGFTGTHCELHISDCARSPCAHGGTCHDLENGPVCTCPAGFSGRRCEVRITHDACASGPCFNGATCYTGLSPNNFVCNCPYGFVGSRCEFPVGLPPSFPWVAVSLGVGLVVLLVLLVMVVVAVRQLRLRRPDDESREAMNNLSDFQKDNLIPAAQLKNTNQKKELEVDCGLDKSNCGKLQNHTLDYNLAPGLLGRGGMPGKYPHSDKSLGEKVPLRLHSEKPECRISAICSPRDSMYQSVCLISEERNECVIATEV
Procedure: as §3

Row | Kd [nM] | Binder
47 | 0.87 | B1
48 | 2.24 | B2
49 | 0.74 | B3
50 | 1.18 | B4
51 | 1.15 | B5
52 | 2.9 | B6
53 | 2.32 | B7

Molecular target: T5, human DLL4 on the cell surface
Experiment: FACS on DLL4 cells
Remark: another data set of the same source
Procedure: as §3

Row | Kd [nM] | Binder
54 | 4 | B8
55 | 6.2 | B9

Molecular target: T6, mouse DLL4 on the cell surface
Experiment: FACS on DLL4 cells
Remark: another data set of the same source
Procedure: as §3

Row | Kd [nM] | Binder
56 | 2.51 | B8
57 | 3.57 | B9

Molecular target: T5, human DLL4 on the cell surface
Experiment: FACS on DLL4 cells
Remark: another data set of the same source

Row | EC50 [nM] | Binder
58 | 4.46 | B10
59 | 3.15 | B11
60 | 0.22 | B12

Molecular target: T6, mouse DLL4 on the cell surface
Experiment: FACS on DLL4 cells
Remark: another data set of the same source

Row | EC50 [nM] | Binder
61 | 1.94 | B10
62 | 0.88 | B11
63 | 0.47 | B12

Each binder was assayed against T5, human DLL4 on the cell surface (assay: cell-based or functional assay).

Row | Inhibition of Notch activation via huDLL4 cells, coculture (IC50, nM) [nM] | Binder
64 | 0.41 | B10
65 | 0.85 | B11
66 | 2.4 | B12

The binders below were run against T5, human DLL4 on the cell surface (assay: competition FACS, competitor huNotch-1).
Procedure: (§4) Notch blocking assay: Briefly, stable cell lines overexpressing cell-surface DLL4 were harvested from tissue culture flasks and re-suspended in phosphate buffered saline (PBS) containing 1% bovine serum albumin and 1 mM CaCl₂ (FACS buffer). HEK293-hDLL4 or HEK293-mDLL4 cells were dispensed into 96-well plate (v-bottom) at 1.5×10⁵ cells/well in FACS buffer. […] After washing the cells two times with FACS buffer, 50 μL of R-phycoerythrin-conjugated streptavidin (1:150 dilution in FACS buffer) (Jackson ImmunoResearch, West Grove, Pa., US, catalog no. 016-110-084) were added. Following an incubation on ice (4° C., 60 minutes), cells were washed three times and resuspended in FACS buffer. Fluorescence was measured using a Becton Dickinson FACSCalibur-HTS (Becton Dickinson, San Jose. Calif.).

Row | IC50 [nM] | Binder
67 | 5.61 | B1
68 | 7.81 | B2
69 | 6.75 | B3
70 | 8.16 | B4
71 | 5.82 | B5
72 | 6.38 | B6
73 | 9.25 | B7

Each binder was assayed against T6, mouse DLL4 on the cell surface (assay: competition FACS, competitor huNotch-1).
Procedure: as §4

Row | IC50 [nM] | Binder
74 | 1.23 | B1
75 | 1.94 | B2
76 | 1.25 | B3
77 | 1.53 | B4
78 | 1.71 | B5
79 | 1.76 | B6
80 | 2.3 | B7

Molecular target: T5, human DLL4 on the cell surface
Experiment: competition FACS, competitor huNotch-1
Remark: another data set of the same source
Procedure: as §4

Row | IC50 [nM] | Binder
81 | 1.57 | B8
82 | 3.03 | B9

Molecular target: T6, mouse DLL4 on the cell surface
Experiment: competition FACS, competitor huNotch-1
Remark: another data set of the same source
Procedure: as §4

Row | IC50 [nM] | Binder
83 | 0.98 | B8
84 | 1.07 | B9

Molecular target: T5, human DLL4 on the cell surface
Experiment: competition FACS, competitor huNotch-1
Remark: another data set of the same source

Row | IC50 [nM] | Binder
85 | 4 | B10
86 | 3.03 | B11
87 | 1.82 | B12

Molecular target: T6, mouse DLL4 on the cell surface
Experiment: competition FACS, competitor huNotch-1
Remark: another data set of the same source

Row | IC50 [nM] | Binder
88 | 0.33 | B10
89 | 0.26 | B11
90 | 0.21 | B12

These binders were tested against T1, human DLL4 extracellular domain (assay: competition ELISA, competitor huNotch-1).
Procedure: (§5) Plates were then washed 3 times with wash buffer (PBS, 0.05% Tween-20) and blocked with 200 μl/well blocking buffer (D-PBS, 1% BSA, 1 mM CaCl₂, 0.05% Tween-20) for 1 hour at 25° C. […] Assay plates were washed after blocking, and incubated with DLL4/antibody mixtures (100 μl/well, 1 hour at 25° C. with shaking). […] After a final wash, plates were developed using 100 μl/well substrate (TMB Sigma # T8665), and the reaction was stopped after an 8-minute incubation at 25° C. (for muDLL4 ELISA) and after 20 minute incubation at 25° C. (for huDLL4 ELISA) using 100 μl/well 1N HCl, and the absorbance was read at 450 nm.

Row | IC50 [nM] | Binder
91 | 2.6 | B1
92 | 2.4 | B2
93 | 2.5 | B3
94 | 2.5 | B4
95 | 2.7 | B5
96 | 2.6 | B6
97 | 2.5 | B7

What follows are binders tested against T2, mouse DLL4 extracellular domain (assay: competition ELISA, competitor huNotch-1).
Procedure: as §5

Row | IC50 [nM] | Binder
98 | 2.2 | B1
99 | 2.4 | B2
100 | 2.1 | B3
101 | 2.9 | B4
102 | 2.9 | B5
103 | 2.4 | B6
104 | 2.6 | B7

Molecular target: T1, human DLL4 extracellular domain
Experiment: competition ELISA, competitor huNotch-1
Remark: another data set of the same source
Procedure: as §5

Row | IC50 [nM] | Binder
105 | 1.54 | B8
106 | 1.52 | B9

Molecular target: T2, mouse DLL4 extracellular domain
Experiment: competition ELISA, competitor huNotch-1
Remark: another data set of the same source
Procedure: as §5

Row | IC50 [nM] | Binder
107 | 3.35 | B8
108 | 4.35 | B9
